Data from PMC10293810.

Target: T1, TREX1 catalytic core (murine) (UniProt Q91XB0)
T1 sequence: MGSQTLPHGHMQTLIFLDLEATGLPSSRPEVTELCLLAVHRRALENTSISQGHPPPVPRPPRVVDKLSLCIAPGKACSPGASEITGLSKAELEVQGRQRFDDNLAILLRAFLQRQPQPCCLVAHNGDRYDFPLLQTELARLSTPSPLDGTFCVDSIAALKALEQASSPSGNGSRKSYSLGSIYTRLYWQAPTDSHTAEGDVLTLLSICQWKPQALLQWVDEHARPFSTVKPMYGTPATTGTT
Assay: fluorescence polarization
Details: FP with 5 nM ligand at 25 C (some FPCD at 4 C); buffer for MS2-CP (BB6): 100 mM Tris pH 7.5, 10 mM MgCl2, 80 mM KCl, 0.1 mg/mL BSA; other buffers not in …

“GAAGTGCCCGTGACGCGCGCGACGCCAGCCGACGAAGGCGGGACCCAGAGCGCGCGCCGT (double strand) [ds-[F]d(N)60]” gave a Kd of 30 nM.
